The values that follow come from paper PMC4596688, “Structural determinants of nuclear export signal orientation in binding to exportin CRM1” (eLife, 2015).

The target of the assay is Full-length human CRM1 (HsCRM1), O14980. Put plainly: GST pull-down, SDS/PAGE band intensity. The settings on record: chain shown with the change; excess ScRanGTP; triplicate experiments; parent: est. 100; read off a plot.
Chain of Full-length human CRM1 (HsCRM1), O14980 (O14980 whole entry): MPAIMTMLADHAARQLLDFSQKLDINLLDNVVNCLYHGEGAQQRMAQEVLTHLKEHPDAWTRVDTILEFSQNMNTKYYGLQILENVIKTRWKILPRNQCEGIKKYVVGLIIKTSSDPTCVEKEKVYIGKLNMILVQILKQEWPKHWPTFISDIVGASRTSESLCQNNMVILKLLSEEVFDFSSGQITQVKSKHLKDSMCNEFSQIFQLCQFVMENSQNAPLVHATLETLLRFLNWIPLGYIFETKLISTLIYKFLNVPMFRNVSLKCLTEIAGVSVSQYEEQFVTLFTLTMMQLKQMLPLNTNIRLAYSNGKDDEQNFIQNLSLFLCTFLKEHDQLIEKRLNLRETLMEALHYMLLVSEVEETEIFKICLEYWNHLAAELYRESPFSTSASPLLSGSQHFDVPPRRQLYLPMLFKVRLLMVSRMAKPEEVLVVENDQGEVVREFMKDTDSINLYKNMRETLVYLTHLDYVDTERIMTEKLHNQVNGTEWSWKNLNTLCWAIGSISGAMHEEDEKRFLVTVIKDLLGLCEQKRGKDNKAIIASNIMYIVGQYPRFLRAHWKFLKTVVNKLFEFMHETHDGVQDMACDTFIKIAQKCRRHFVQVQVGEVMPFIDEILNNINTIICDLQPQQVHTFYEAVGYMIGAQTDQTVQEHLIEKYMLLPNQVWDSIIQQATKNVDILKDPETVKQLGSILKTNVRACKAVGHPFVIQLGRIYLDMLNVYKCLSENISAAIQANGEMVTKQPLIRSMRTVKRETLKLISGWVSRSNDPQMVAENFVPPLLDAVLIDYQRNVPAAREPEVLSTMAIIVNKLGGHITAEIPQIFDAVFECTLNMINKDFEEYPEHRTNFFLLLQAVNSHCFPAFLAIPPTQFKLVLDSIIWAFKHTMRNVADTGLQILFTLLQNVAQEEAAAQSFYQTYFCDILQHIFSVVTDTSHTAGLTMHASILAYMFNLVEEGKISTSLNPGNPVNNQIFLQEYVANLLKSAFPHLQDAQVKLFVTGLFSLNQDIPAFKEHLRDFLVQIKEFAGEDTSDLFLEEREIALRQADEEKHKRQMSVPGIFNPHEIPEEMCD

With GKIEELAQNFETLEFSR [GST-hRio2NES-R M11L], the percent of parent is 105%. As to GKIEELAQNFETMEVSR [GST-hRio2NES-R F13V], the percent of parent was 140%. In the case of GKIEELAQNFETMEISR [GST-hRio2NES-R F13I] it was 150%; in that of GKIEELAQNFETMELSR [GST-hRio2NES-R F13L], 130%.
